{
  "source": "paper PMC5994690",
  "about": "“Virulence Associated Gene 8 of Bordetella pertussis Enhances Contact System Activity by Inhibiting the Regulatory Function of Complement Regulator C1 Inhibitor” (Frontiers in Immunology, 2018)",
  "binders": {"B1": {"name": "Recombinant his-tag passenger domain of virulence associated gene 8 (Vag8) of Bordetella pertussis (domain or fragment)", "chain": "VTAAQRIDGGAAFLGDVAIATTKASEHGINVTGRTAEVRVTGGTIRTSGNQAQGLRVGTENAPDNTALGASVFLQNLIIETSGTGALGVSVHEPQGGGGTRLSMSGTTVRTRGDDSFALQLSGPASATLNDVALETAGQQAPAVVLWQGAQLNAQGLVVQVNGAGVSAIHAQDAGSFTLSGSDITARGLEVAGIYVQEGMQGTLTGTRVTTQGDTAPALQVEDAGTHVSMNGGALSTSGANSPAAWLLAGGSAQFRDTVLRTVGEASHGVDVAAHSEVELAHAQVRADGQGAHGLVVTRSSAMVRAGSLVESTGDGAAALLESGHLTVDGSVVHGHGAAGLEVDGESNVSLLNGARLSSDQPTAIRLIDPRSVLNLDIKDRAQLLGDIAPEAQQPDGSPEQARVRVALADGGTWAGRTDGAVHTVRLLDRGVWTVTGDSRVAEVKLEGGTLAFAPPAQPKGAFKTLVATQGISGTGTIVMNAHLPSGTADVLVAPQGFGDRQVLVVNNTDDGTESGATKVPLIEDEQGHTAFTLGNMGGRVDAGARQYELTASEAQADKARTWQLTPTNEL"}, "B2": {"name": "Full length complement regulator C1 inhibitor (C1-INHFL), serum-derived (natural protein, UniProt P05155 23-500, looked up)", "chain": "NPNATSSSSQDPESLQDRGEGKVATTVISKMLFVEPILEVSSLPTTNSTTNSATKITANTTDEPTTQPTTEPTTQPTIQPTQPTTQLPTDSPTQPTTGSFCPGPVTLCSDLESHSTEAVLGDALVDFSLKLYHAFSAMKKVETNMAFSPFSIASLLTQVLLGAGENTKTNLESILSYPKDFTCVHQALKGFTTKGVTSVSQIFHSPDLAIRDTFVNASRTLYSSSPRVLSNNSDANLELINTWVAKNTNNKISRLLDSLPSDTRLVLLNAIYLSAKWKTTFDPKKTRMEPFHFKNSVIKVPMMNSKKYPVAHFIDQTLKAKVGQLQLSHNLSLVILVPQNLKHRLEDMEQALSPSVFKAIMEKLEMSKFQPTLLTLPRIKVTTSQDMLSIMEKLEFFDFSYDLNLCGLTEDPDLQVSAMQHQTVLELTETGVEAAAASAISVARTLLVFEVQQPFLFVLWDQQHKFPVFMGRVYDPRA", "modifications": "glycosylated (58 kDa protein/28 kDa sugar by SEC-MALS)", "notes": "Purified from serum (Complement Technology/Complement Technologies, Tyler, TX); source: bought: Complement Technology (serum-derived)"}},
  "key": {"[1]": {"biological_target": "B2", "test": "SPR; Biacore T200; Vag8 passenger domain immobilised by amine coupling on a CM5 chip; C1-INH 2.5-160 nM injected at 30 µL/min; 25°C, 10 mM HEPES pH 7.4, 150 mM NaCl, 3 mM EDTA, 0.005% P20; dissociation 300 s", "details": "both partners purified"}, "[2]": {"biological_target": "B1", "test": "SEC-MALS; S200 increase 10/300 column, 50 mM Tris pH 7.5, 150 mM NaCl, 0.4 mL/min; individual proteins and the complex", "details": "both partners purified"}},
  "data": [
    {"binder": "B1", "values": [
      {"measurement": "Kd", "setting": "[1]", "value": "≤ 1", "unit": "nM"}
    ]},
    {"binder": "B2", "values": [
      {"measurement": "stoichiometry N", "setting": "[2]", "value": 1}
    ]}
  ]
}
